Laboratory results from patent US20250381277A1, “COMPOSITIONS AND METHODS FOR TREATMENT OF NEUROLOGICAL DISORDERS” (Dana-Farber Cancer Institute, Inc., priority 2022, published 2025).

Assays:
[1] = target: osteopontin (OPN) produced by mouse microglia (mouse) (UniProt P10923); assay: intracellular flow cytometry, SSC against OPN, microglia of 9-mo mice stained with the isotype control 1:10 (genotype of this panel not labelled)
[2] = target: osteopontin (OPN) produced by mouse microglia (mouse) (UniProt P10923); assay: intracellular flow cytometry, SSC against OPN, microglia stained with the isotype control (the legend says only 'Isotype control'; genotype of this panel not labelled) [b]
CD11c^− microglia = assay: Apoptotic neuron (AN) uptake and CD11c^- to CD11c^+ differentiation of microglia with αVβ3 / TAM receptor inhibitors; assay type: cell-based, mouse; conditions: P5 B6-WT CD11c^− microglia, 72 h with pHrodo-labeled ANs 1:1; cilengitide 10 μM, LDC1267 1 μM
From the text: (A) Brain single cell suspensions of 9-mo old WT mice were generated for validation of microglial CD11c expression by flow cytometry. We first gate on CD11b^+ cells from single/live cells followed by subsequent gating of CD11b^+CD45^low populations as potential microglia. […] In contrast, CCR2 but not Tmem 119 expression is detected in the CD11b^+CD45^high fraction, i.e., putative macrophage populations. Analysis of the CD11b^+CD45^low microglial population using FMO negative controls for these FACS plots confirms specificity. […] (B) The proportion of CD11c^+ microglia in C57BL/6 (B6) mice during early development and normal aging (n=3) was determined by flow cytometry analysis. CD11c^+ microglia were initially present at late embryonic day (E18.5), peaked at early postanal day (P5) and gradually declined to marginal levels in young adulthood (3-mon) followed by re-emergence and further expansion during aging. (C) CD11c^− microglia were isolated from P5 B6-WT mice by negative section with anti-CD11c magnetic beads (purity >99%) followed by co-incubation×72 h in the presence or absence of pHrodo fluorescent dye-labeled apoptotic neurons (ANs) at a 1:1 ratio. After 72 h incubation, 23% of total CD11c^− microglia had ingested ANs (AN^+), of which 77.4% of these AN^+ microglia were CD11c^+. […] Expression of CD11c was assessed in CD86^+ or MHC II^+ activated microglia. […]

[3] = target: CD11b on microglia from 5XFAD mice (mouse) (UniProt P05555); assay: flow cytometry, AF488-CD11b fluorescence, microglia from 5XFAD mice; isotype control histogram (top trace) [B]
Sequence of UniProt P05555 (P05555 17-1153): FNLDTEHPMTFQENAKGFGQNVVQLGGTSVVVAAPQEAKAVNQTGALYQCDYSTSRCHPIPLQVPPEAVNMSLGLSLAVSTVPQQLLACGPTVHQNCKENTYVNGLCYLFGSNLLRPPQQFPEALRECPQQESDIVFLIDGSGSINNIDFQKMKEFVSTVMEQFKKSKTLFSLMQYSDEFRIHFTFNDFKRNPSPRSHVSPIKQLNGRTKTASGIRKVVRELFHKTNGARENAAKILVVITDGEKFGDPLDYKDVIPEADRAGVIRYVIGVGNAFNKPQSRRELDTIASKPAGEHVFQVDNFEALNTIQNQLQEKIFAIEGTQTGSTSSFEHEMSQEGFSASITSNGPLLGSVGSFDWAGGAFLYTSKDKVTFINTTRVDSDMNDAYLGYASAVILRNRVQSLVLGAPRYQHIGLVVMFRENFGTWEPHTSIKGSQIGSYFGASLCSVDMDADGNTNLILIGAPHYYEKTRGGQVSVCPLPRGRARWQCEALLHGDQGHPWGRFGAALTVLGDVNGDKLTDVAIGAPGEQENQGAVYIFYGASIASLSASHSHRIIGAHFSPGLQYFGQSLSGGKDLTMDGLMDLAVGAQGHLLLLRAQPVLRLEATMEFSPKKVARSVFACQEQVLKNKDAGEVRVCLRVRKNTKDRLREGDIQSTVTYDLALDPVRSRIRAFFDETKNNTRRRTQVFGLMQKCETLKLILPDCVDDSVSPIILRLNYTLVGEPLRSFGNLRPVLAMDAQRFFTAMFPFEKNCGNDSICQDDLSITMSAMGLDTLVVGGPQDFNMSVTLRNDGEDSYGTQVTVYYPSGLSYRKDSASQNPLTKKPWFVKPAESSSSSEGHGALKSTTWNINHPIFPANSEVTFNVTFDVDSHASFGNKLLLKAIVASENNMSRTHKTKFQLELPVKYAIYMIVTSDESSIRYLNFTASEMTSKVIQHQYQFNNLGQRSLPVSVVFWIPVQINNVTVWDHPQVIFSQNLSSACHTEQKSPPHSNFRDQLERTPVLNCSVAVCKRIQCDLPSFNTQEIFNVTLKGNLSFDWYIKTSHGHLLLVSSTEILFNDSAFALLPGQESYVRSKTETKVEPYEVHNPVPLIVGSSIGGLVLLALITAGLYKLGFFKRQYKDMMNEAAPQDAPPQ

Sequence of UniProt P10923 (P10923 17-294 limits assumed): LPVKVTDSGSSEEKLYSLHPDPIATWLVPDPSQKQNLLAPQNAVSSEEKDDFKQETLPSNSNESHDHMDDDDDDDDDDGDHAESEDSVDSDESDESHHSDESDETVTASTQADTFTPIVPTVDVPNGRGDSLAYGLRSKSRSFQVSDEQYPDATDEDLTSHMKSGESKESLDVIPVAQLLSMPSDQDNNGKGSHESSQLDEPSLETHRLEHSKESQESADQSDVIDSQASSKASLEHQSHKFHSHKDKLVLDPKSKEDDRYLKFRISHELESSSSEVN

isotype control (PE-conjugated goat IgG) (antibody)
number printed over the OPN+ gate (frequency of OPN+ microglia) [1]: 0.4%
number printed in the OPN+ gate (frequency of OPN+ microglia) [2]: 0.25%

CCOc1cn(-c2ccc(F)cc2C)nc1C(=O)Nc1ccc(Oc2ccnc3cc(OC)c(OC)cc23)c(F)c1 [LDC1267]
reduction of AN uptake by CD11c^− microglia (CD11c^− microglia): about 50%

Isotype (antibody)
CD11b+ microglia (%) [3]: 0.4%
